# From patent publication US20210122826A1 (MIT, published 2021)
# T1: Human KLRF1 (human, UniProt Q9NZS2 1-231)
# T1 construct: also called hKLRF1
# T1 sequence: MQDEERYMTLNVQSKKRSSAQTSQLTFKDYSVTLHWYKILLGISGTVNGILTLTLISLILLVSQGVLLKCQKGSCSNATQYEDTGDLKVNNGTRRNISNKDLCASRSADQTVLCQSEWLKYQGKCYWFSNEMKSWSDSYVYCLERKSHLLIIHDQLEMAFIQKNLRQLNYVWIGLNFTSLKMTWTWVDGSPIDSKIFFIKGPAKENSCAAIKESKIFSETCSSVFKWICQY
# T2: Human CD94 (human, UniProt Q13241 1-179)
# T2 construct: also called hCD94
# T2 sequence: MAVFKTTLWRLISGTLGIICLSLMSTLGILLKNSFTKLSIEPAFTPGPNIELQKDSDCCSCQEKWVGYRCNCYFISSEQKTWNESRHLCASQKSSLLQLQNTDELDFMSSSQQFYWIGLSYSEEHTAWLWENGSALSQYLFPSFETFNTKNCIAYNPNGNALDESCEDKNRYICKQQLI
# T3: Human KLRF2 (human, UniProt D3W0D1 1-207)
# T3 construct: also called hKLRF2
# T3 sequence: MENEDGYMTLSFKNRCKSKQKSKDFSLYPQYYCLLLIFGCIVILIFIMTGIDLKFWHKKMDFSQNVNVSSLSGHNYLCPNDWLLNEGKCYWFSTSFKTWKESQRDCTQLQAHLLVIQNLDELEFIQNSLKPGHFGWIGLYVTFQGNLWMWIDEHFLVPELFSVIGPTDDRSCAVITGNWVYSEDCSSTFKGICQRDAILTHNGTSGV
# T4: Human Clec12B (human, UniProt Q2HXU8 1-276)
# T4 construct: also called hClec12B
# T4 sequence: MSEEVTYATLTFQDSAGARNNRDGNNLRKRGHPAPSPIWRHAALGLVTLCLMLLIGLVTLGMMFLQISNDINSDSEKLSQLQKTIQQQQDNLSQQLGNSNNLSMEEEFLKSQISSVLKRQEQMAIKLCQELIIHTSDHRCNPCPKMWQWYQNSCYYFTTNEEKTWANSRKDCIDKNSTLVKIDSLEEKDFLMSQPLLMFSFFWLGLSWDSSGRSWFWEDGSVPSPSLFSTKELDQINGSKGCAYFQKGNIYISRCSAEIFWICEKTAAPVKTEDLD
# T5: Human Clec7A (human, UniProt Q9BXN2 1-247)
# T5 construct: also called hClec7A
# T5 sequence: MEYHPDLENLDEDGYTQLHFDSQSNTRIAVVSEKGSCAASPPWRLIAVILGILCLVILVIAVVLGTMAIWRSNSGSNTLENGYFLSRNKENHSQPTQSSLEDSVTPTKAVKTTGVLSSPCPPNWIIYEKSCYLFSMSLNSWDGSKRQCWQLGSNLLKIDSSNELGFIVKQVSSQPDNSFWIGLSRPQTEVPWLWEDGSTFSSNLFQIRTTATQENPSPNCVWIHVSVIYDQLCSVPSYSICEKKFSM
# T6: Human KLRG1 (human, UniProt Q96E93 1-195)
# T6 construct: also called hKLRG1
# T6 sequence: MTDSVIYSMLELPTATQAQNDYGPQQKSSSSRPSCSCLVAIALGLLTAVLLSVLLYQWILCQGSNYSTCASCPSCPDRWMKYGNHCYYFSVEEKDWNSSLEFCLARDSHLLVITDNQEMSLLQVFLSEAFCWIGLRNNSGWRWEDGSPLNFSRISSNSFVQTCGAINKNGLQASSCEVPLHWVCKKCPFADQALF
# T7: Human Clec5A (human, UniProt Q9NY25 1-188)
# T7 construct: also called hClec5A
# T7 sequence: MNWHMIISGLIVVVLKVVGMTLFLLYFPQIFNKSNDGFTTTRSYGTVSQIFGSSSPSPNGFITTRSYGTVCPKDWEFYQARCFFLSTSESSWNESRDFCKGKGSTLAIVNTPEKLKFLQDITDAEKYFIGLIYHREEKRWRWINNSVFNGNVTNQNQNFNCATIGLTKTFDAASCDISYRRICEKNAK
# T8: Human CD209 (human, UniProt Q9NNX6 1-404)
# T8 construct: also called hCD209
# T8 sequence: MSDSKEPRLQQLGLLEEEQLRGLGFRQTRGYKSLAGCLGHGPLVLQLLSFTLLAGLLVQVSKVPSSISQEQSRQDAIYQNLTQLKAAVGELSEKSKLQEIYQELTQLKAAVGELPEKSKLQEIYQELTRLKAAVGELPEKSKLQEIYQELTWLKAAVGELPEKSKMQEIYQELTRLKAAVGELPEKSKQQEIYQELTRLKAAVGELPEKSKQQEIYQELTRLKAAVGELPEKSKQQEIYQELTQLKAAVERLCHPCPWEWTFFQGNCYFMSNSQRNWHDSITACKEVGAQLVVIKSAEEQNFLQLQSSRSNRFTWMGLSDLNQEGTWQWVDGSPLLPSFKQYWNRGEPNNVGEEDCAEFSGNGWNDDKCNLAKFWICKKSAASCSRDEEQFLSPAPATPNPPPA
# T9: Human Clec4E (human, UniProt Q9ULY5 1-219)
# T9 construct: also called hClec4E
# T9 sequence: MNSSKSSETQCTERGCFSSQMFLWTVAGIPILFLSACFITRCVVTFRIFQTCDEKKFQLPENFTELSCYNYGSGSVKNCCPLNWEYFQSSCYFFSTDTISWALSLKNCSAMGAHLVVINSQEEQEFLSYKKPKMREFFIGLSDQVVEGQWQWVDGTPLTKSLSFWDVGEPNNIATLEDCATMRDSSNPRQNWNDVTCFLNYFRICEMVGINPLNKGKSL
# T10: Human Clec10A (human, UniProt Q8IUN9 1-316)
# T10 construct: also called hClec10A
# T10 sequence: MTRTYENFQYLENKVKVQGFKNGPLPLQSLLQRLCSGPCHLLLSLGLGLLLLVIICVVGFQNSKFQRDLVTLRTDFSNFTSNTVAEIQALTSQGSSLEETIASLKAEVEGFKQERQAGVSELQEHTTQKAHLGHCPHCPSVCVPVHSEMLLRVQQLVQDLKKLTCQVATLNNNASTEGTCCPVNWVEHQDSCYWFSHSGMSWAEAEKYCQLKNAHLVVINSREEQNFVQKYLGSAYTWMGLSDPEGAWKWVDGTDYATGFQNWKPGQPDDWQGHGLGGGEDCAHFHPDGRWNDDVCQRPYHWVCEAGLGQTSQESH
# Tests used:
# Test in all cases: flow, Jurkat
# [1] = target: T1, Human KLRF1
# [2] = target: T2, Human CD94
# [3] = target: T3, Human KLRF2
# [4] = target: T4, Human Clec12B
# [5] = target: T5, Human Clec7A
# [6] = target: T6, Human KLRG1
# [7] = target: T11, Human OLR1 (human, UniProt P78380 1-273)
# T11 construct: also called hOLR1
# [8] = target: T7, Human Clec5A
# [9] = target: T12, Human Clec9A (human, UniProt Q6UXN8 1-241)
# T12 construct: also called hClec9A
# T12 sequence (Q6UXN8 whole entry): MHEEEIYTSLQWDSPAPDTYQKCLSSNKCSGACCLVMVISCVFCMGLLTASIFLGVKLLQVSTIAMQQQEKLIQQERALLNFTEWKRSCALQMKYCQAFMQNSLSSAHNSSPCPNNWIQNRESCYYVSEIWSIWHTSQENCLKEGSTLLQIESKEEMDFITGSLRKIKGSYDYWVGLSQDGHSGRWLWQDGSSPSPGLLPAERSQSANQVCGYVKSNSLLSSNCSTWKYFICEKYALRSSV
# [10] = target: T8, Human CD209
# [11] = target: T9, Human Clec4E
# [12] = target: T10, Human Clec10A
binding result [1],binding result [2],binding result [3],binding result [4],binding result [5],binding result [6],binding result [7],binding result [8],binding result [9],binding result [10],binding result [11],binding result [12],Binder
no binding (tested: 100 nM),no binding (tested: 100 nM),no binding (tested: 100 nM),no binding (tested: 100 nM),no binding (tested: 100 nM),no binding (tested: 100 nM),no binding (tested: 100 nM),no binding (tested: 100 nM),no binding (tested: 100 nM),no binding (tested: 100 nM),no binding (tested: 100 nM),no binding (tested: 100 nM),"KW1.2.1 (antibody, V domains shown) VH: EVQLVESGGGLVQPGGSLRLSCAASGSTFSSYAMSWVRQAPGKGLEWVSTISGSGGSTYYADSVKGRFTISRDNSRNTLYLQMNSLRAEDTAVYYCARGGLIPSGFDYWGQGTLVTVSS VL: DIQMTQSPSSPSASVGDRVTITCRASQSISSYLNWYQQKPGKAPKLLIYAASSLLSGVPSRFSGSGSGTDFTLTISSLQPEDFATYYCQQTYSTPLTFGQGTKVEIK"
no binding (tested: 100 nM),no binding (tested: 100 nM),no binding (tested: 100 nM),no binding (tested: 100 nM),no binding (tested: 100 nM),no binding (tested: 100 nM),no binding (tested: 100 nM),no binding (tested: 100 nM),no binding (tested: 100 nM),no binding (tested: 100 nM),no binding (tested: 100 nM),no binding (tested: 100 nM),"KW1.3.12 (antibody, human IgG1, V domains shown) VH: EVQLVESGGGLVQPGGSLRLSCAASGFTFSSYAMSWVRQAPGKGLEWVSTISGSGGSTYYADSVKGRFTISRDNSRNTLYLQMNSLRAEDTAVYYCARGGLIPSGFDYWGQGTLVTVSS VL: DIQMTQSPSSLSASVGDRVTITCRASQSISSYLNWYQQKPGKAPKLLIYAASSLLSGVPSRFSGSGSGTDFTLTISSLQPEDFATYYCQQTYSAPLTFGQGTKVEIK"

# The next lines start with the binder.
Binder,binding result [1],binding result [2],binding result [3],binding result [4],binding result [5],binding result [6],binding result [7],binding result [8],binding result [9],binding result [10],binding result [11],binding result [12]
"KM12.2.3 (antibody, human IgG1, V domains shown) VH: EVQLVESGGGLVQPGGSLRLSCAASGFTFSSYAMSWIRQAPGKGLEWVSAISGSGGSIYYADSVKGRFTISRDNSKNTLYLQMNSLRAEDTAVYYCARGYSDSYFYGPYYTFDYWGQGTLVTVSS VL: DIQMTQSPSSLSASVGDRVTITCRASQGISSYLNWYQQKPGKAPKLLIYAASSLQSGVSSRFSGSGSGTDFTLTISSLQPEDFATYYCQQSYNTPLTFGQGTKVEIK",no binding (tested: 100 nM),no binding (tested: 100 nM),no binding (tested: 100 nM),no binding (tested: 100 nM),no binding (tested: 100 nM),no binding (tested: 100 nM),no binding (tested: 100 nM),no binding (tested: 100 nM),no binding (tested: 100 nM),no binding (tested: 100 nM),no binding (tested: 100 nM),no binding (tested: 100 nM)
"KW7.3.7 (antibody, V domains shown) VH: EVQLVESGGGLVQPGGSLRLSCAASGFTFSSYAMSWVRQAPGKGLEWVSATSGSGGSTYYADSAKGRFTISRDNSKNTLYLQMNSLRAEDTAVYYCARGGYLPDAFDYWGRGTLVTVSS VL: DIQMTQSPSSLSASVGDRVTITCWASQSISSYLNWYQQEPGKAPKLLIYAASSLQSGVPSRFSGSGSGTDFTLTISSLQPEDFATYYCQQTYSTPLTFGQGTKVEIK",no binding (tested: 100 nM),no binding (tested: 100 nM),no binding (tested: 100 nM),no binding (tested: 100 nM),no binding (tested: 100 nM),no binding (tested: 100 nM),no binding (tested: 100 nM),no binding (tested: 100 nM),no binding (tested: 100 nM),no binding (tested: 100 nM),no binding (tested: 100 nM),no binding (tested: 100 nM)
"KW7.2.2 (antibody, V domains shown) VH: not shown VL: DIQMTQSPSSLSASVGDRVTITCRASQSISSYLNWYQQKPGKAPRFLIYAASSLQSGVPSRFSGSGSGTDFTLTISSLQPEDFATYYCQQTYSTPLTFGQGTKVEIK",no binding (tested: 100 nM),no binding (tested: 100 nM),no binding (tested: 100 nM),no binding (tested: 100 nM),no binding (tested: 100 nM),no binding (tested: 100 nM),no binding (tested: 100 nM),no binding (tested: 100 nM),no binding (tested: 100 nM),no binding (tested: 100 nM),no binding (tested: 100 nM),no binding (tested: 100 nM)
